# Measured values from paper PMC8373988 (2021).
# Where a chain is given by its changes, count along the chain named. Names and notes keep the numbering of the source.
# B1: FICD^L258D-H363A (residues 104–445), monomeric, catalytically inactive [human] / AMPylated biotinylated-AviTag-haBiP^T229A-V461F (residues 27–635) [modified: AMP covalently attached to Thr518 (Thr518-AMP); biotin on the N-terminal Avi-tag; … (parent complex)
# chain 1: LEARAALNQALEMKRQGKREKAQKLFMHALKMDPDFVDALTEFGIFSEEDKDIIQADYLYTRALTISPYHEKALVNRDRTLPLVEEIDQRYFSIIDSKVKKVMSIPKGNSALRRVMEETYYHHIYHTVAIEGNTLTLSEIRHILETRYAVPGKSDEEQNEVIGMHAAMKYINTTLVSRIGSVTISDVLEIHRRVLGYVDPVEAGRFRTTQVLVGHHIPPHPQDVEKQMQEFVQWLNSEEAMNLHPVEFAALAHYKLVYIAPFIDGNGRTSRLLMNLILMQAGYPPITIRKEQRSDYYHVLEAANEGDVRPFIRFIAKCTETTLDTLLFATTEYSVALPEAQP
# chain 2: not shown
# B2: FICD^H363A (residues 104–445), dimeric, catalytically inactive [human] / AMPylated biotinylated-AviTag-haBiP^T229A-V461F (residues 27–635) [modified: AMP covalently attached to Thr518 (Thr518-AMP); biotin on the N-terminal Avi-tag; AMP … (parent complex)
# chain 1: B1 chain 1 with D155L
# chain 2: not shown
# Variants of: B1
# Assay: BLI; 50 nM FICD analyte; immobilised BiP-AMP activated in 2 mM ATP; read at end of apo association (600 s); parent: 0.7; read off a plot
row,Variant,response [nm]
1,chain 1 E2R,~0.12
2,chain 1 H28A,~0.2

# Variants of: B1
# Assay: BLI; 50 nM FICD analyte, oxidised (TPRox); immobilised BiP activated in 2 mM ATP; read at end of apo association (600 s); parent: 0.68; read off a plot
row,Variant,response [nm]
1,"chain 1 D57C, chain 1 T80C, chain 1 C318S",~0.92

# Variants of: B1
# Assay: BLI; 50 nM FICD analyte, oxidised (TPRox); immobilised BiP-AMP activated in 2 mM ATP; read at end of apo association (600 s); parent: 0.7; read off a plot
row,Variant,response [nm]
1,"chain 1 D57C, chain 1 T80C, chain 1 C318S",~0.91

# Variants of: B2
# Assay: BLI; 50 nM FICD analyte; immobilised BiP activated in 2 mM ATP; read at end of apo association (600 s); parent: 0.2; read off a plot
row,Variant,response [nm]
1,chain 1 L155D,~0.75

# Variants of: B2
# Assay: BLI; 50 nM FICD analyte; immobilised BiP-AMP activated in 2 mM ATP; read at end of apo association (600 s); parent: 0.92; read off a plot
row,Variant,response [nm]
1,chain 1 L155D,~0.75

# Variants of: B2
# Assay: BLI; 50 nM FICD analyte; immobilised BiP activated in 2 mM ATP; read at end of apo association (600 s); parent: 0.24; read off a plot
row,Variant,response [nm]
1,chain 1 K21E,~0.01
2,chain 1 E2R,~0.04

# Variants of: B2
# Assay: BLI; 50 nM FICD analyte; immobilised BiP-AMP activated in 2 mM ATP; read at end of apo association (600 s); parent: 0.74; read off a plot
row,Variant,response [nm]
1,chain 1 K21E,~0.43
2,chain 1 E2R,~0.73
3,chain 1 H28A,~0.66
4,"chain 1 K21E, chain 1 H28A",~0.03

# Variants of: B2
# Assay: BLI; 50 nM FICD analyte, oxidised (TPRox); immobilised BiP activated in 2 mM ATP; read at end of apo association (600 s); parent: 0.24; read off a plot
row,Variant,response [nm]
1,"chain 1 D57C, chain 1 T80C, chain 1 C318S",~0.31

# Variants of: B2
# Assay: BLI; 50 nM FICD analyte, oxidised (TPRox); immobilised BiP-AMP activated in 2 mM ATP; read at end of apo association (600 s); parent: 0.74; read off a plot
row,Variant,response [nm]
1,"chain 1 D57C, chain 1 T80C, chain 1 C318S",~0.79
